# Measurements reported in US20260258115A1 (MAPP BIOPHARMACEUTICAL, published 2026).
# Numbering of substitutions follows the chain as printed.
# B1: ADI-20992 (antibody, V domains shown)
# VH: EVQLVESGGGLVQPGGSLRLSCVVSGFTFKSYWMTWVRQAPGKGLEWVANIKEDGSEKYYVDSVKGRFTISRDNARNSLFLQMNSLRADDTAVYYCARNLEVSNEFYVVTDNYYLMDVWGQGTTVTVSS
# VL: DIQLTQSPSSLSASVGDRVTITCRASQSISFFLNWYRQKPGKAPKLLIYAASTLQSGVPSRFSGSGSGTDFTLTISSLQPEDFASYYCQQSYSTPHTFGQGTKVEIK
# B2: ADI-21017 (antibody, V domains shown)
# VH: QVQLVESGTEVKKPGASVKVSCKASGYTFTNYGITWVRQAPGQGLEWMGCISGYNGNTNYAQNLQGRVTMTTDTSTNTAYMELRSLISDDTAVYYCARDTGLTAAALLDYWGQGTLVTVSS
# VL: DIVLTQSPLSLPVTLGQPASISCRSSQSLVYSDGNTYLSWFQQRPGQSPRRLIYKVSNRDSGVPDRFGGSGSGTYFTLKISRVEAEDVGIYYCMQAIHWPLTFGGGTKVEIK
# B3: ADI-20988 (antibody, V domains shown)
# VH: EVQLVESGGEVKKPGASVKVSCKTSGYPFSNYGISWMRLAPGQGLEWMGWISSYNGNTYYTKKFQGRVSMTTDTSTSTAYMELRSLRSDDTAVYYCARDVPVIAAHTFEYWGQGTLVTVSS
# VL: ETTLTQSPLSLPVTLGQPASISCRSSESLVYSDGNTYLSWFQQRPGQSPRRIIYKVSNRDSGVPDRFSGSGSGTDFTLKISRVEAEDVGVYYCMQATHWPRDTFGQGTKVDIK
# notes: also called Ab 240
# B4: ADI-20961 (antibody, V domains shown)
# VH: QVQLVESGGGLVKPGGSLRLSCAASGFKFSSYYMHWVRQAPGKGLEWVSSVSGGSTYTSYADSVKGRFTISRDNAKHSLFLQLNSLRAEDTAVYHCVRGDYHPSGTSLNWFDPWGQGTLVTVSS
# VL: QPGLTQPPSVSGAPGQRVTISCTGSSSNIGAGYDVHWYKQLPGTVPKLLIYANNNRPSGVPDRFSGSESGTSASLAITGLQAEDEADYYCQSYDSSLNAYVFGTGTKVTVL
# B5: ADI-20991 (antibody, V domains shown)
# VH: EVQLVESGGNLVKPGGSLRLSCAASGFTFSGYYMSWIRQAPGKGLEWISDISGGSSYTNYADSVKGRFTISRDNAKNSLYLQMNSLRAEDTAMYYCARVEYDTTGPFHFDYWGQGTLVTVSS
# VL: B4 VL with G3V, K39Q, V45A, A52G, F64L, E68K, N98S, A99G
# B6: ADI-20962 (antibody, V domains shown)
# VH: QVQLVQSGAEVKKPGASVKVSCKASGYTFSHYGLSWVRQAPGQGLEWMGWISAYNHNTNYAQKFQGRVTITTDTSTSTAYLEMRSLRSDDTAVYYCAREPPSDTAAGTGDYWGQGTLVTVSS
# VL: DIVMTQSPLSLSVTLGQPASISCRSSQSLVYSDGNTYLTWFQQRPGQSPRRLIYKVSNRDSGVPDRFSGSGSGTDFTLKISRVEAEDVGVYYCMQGTQWPRTFGQGTKVDIK
# B7: ADI-20973 (antibody, V domains shown)
# VH: EVQLLESGGGLVKPAGSLRLSCAASGFSFSSYYMNWIRQAPGKGLEWVSDISGGSSYTNYADSVKGRFTVSRDNAKNSVYLQMNSLRGEDTAVYYCARGASTAATYTPTFDYWGQGILVTVSS
# VL: QPVLTQPPSVSGAPGQRVTISCTGSSSNIGAGYDVHWYQQLPGTAPKLLMFGNNNRPSGVPDRFSGSKSGTSASLAITGLRPEDEADYYCQSYDRRLTVVFGGGTKLTVL
# B8: ADI-20974 (antibody, V domains shown)
# VH: EVQLVESGGGLVKPGGSLRLSCAASGFSFSSYQINWVRQAPGKGLEWVSSISGGSSYTDYADSIKGRFTISRDNAKKSAFLQMKSLRADDTAVYYCARALMATAGGLAFDIWGQGTMVTVSS
# VL: B7 VL with S26G, L41V, M50I, F51L, G52R, N54T, R81Q, P82A, R96S, T98S
# B9: ADI-20970 (antibody, V domains shown)
# VH: EVQLLESGGGLVKPGGSLRLSCAVSGFSFSNAWMSWVRQAPGKGLEWVGRIRSKTDGGTTDYAAPVKGRFTISRDDSKNTLYLQMNSLKTEDTAVYYCTTAPRYSTSWYPGYYYYYYMDVWGKGTTVTVSS
# VL: DIQMTQSPSSLSASVGDRVTITCQASQDINFYLNWYQQKPGKAPKLLIYDASNLETGVPSRFSGSVSGTDFTFTISSLQPEDFATYYCQQYDDLPAFGGGTKVEIK
# B10: ADI-20983 (antibody, V domains shown)
# VH: EVQLVESGGALVQPGGSLRLSCSASGFTFSSYAMHWVRQAPGKGLEYVSAINNFGDKTYYTDSVEGRFTISRDNSKKTLYLQMSSLRPEDTAVYYCVKDRGYCSSPSCYAVPYYYFYGMDVWGQGTTVTVSS
# VL: EIVMTQSPSSLSASVGDRVTITCQASQGISNYLHWYQQKPGKAPKLLIYDASNLEAGVPSRFSGSGAGTDFTFTISSLQPEDVATYYCQHYNNLPFTFGPGTKVDIK
# B11: ADI-20971 (antibody, V domains shown)
# VH: EVQLVESGGGLVKPGESLRLSCAASGFTFSDYSMTWIRQAPGKGLLEWIAYINSQSNYMDYADSVKGRFTISRDNAKNSLYLQMNGLRADDTAVYFCARDRRTFVAATLGWFDPWGQGTLVTVSS
# VL: ETTLTQSPATLSVSPGERATLSCRASQSVSNNVAWYQQKPGQAPRVLIYAASTRATGIPARFSGSESGTEFTLTISSLQSEDFAVYYCQQYNNWPRTFGQGTKLEIK
# B12: ADI-20969 (antibody, V domains shown)
# VH: EVQLVESGGGLVKPGGSLRLSCAASGFKFSSYTMNWVRQAPGKGLEWVSSVSASSSYIFYADSVQGRFIISRDNAQNSLYLQMNSLRADDTAVYYCARDQYGPGHYYNPAWFDPWGQGTLVTVSS
# VL: QPVLTQPPSVSGAPGQRVTISCTGTSSNIGAGYDVHWYKQLPGTAPKVLIYGNTNRPSGIPDRFSGSKSGTSASLAITGLKAEDEADYYCQSYDRSGSKVFGTGTKLTVL
# B13: ADI-21032 (antibody, V domains shown)
# VH: B12 VH with A24V, A97T
# VL: B12 VL with V10A, T25S, K39Q, T78I, K81Q, S96N
# notes: also called Ab 280
# B14: ADI-20986 (antibody, V domains shown)
# VH: EVQLVESGGGLVQPGGSLRLSCVASGFTFSNYWMNWVRQAPGKGLEWVANIKEDGSEIKYVDSVKGRFTISRDNAKNSLYLQMNSLRAEDTAVYYCARTEDSSSWFVAIDYYNYMDVWGKGTTVTVSS
# VL: DIQVTQSPGTLSLSPGERATLSCRASQTVSSSYLAWYQQKPGQAPRLLFYGASSRATDIPDRFSASGSGTDFTLTIHRLEPEDFAVYYCQLYGRSPPYTFGQGTKVEIK
# B15: ADI-20979 (antibody, V domains shown)
# VH: EVQLQESGPGLVKPSETLSLTCTVSGGSLRSYYWSWIRQPPGKGLEWIGNIYYGGSTNYNSSLKGRVTISIDTSKNQFSLRLSSVTAADTAVYYCARDGLFPMGEWDYWGQGILVTVSS
# VL: QSALTQPASVSGSPGQSITISCTGTSNDVGDYNYVSWYQQHPGEAPKLMIYEVTNRPSGVSDRFSGSKSGNTASLTISGLQAEDEADYYCSSYTSSTSVVFGGGTQLTVL
# notes: also called Ab 232
# B16: ADI-20999 (antibody, V domains shown)
# VH: QVQLQESGPVLVKPSETLSLTCTVSGGSITSSAYYWGWIRQPPGKGLEWIGSVSYSGTTSYTPSLKSRVTISGDASKEQFSLNLRSVTAADTAVYYCARQTKAFGRRDYGMDVWGQGTTVTVSS
# VL: QPVLTQPPSVSAAPGQKVTISCSGSNSNIGSNFVSWYQQLPGTAPKLLIYENNKRPSGIPDRFSGSKSGPSATLGITGLQTEDEADYYCGTWDTGLSAHWVFGGGTKLTVL
# notes: also called Ab 250
# B17: ADI-20964 (antibody, V domains shown)
# VH: QVQLVQSGAEVKKPGASVKVSCKASGYTFTHYGISWVRQAPGQGLEWMGWISAYNGNTNYAQKLQGRVTMTTDTSTSTAYMEVRSLRYDDTAVYYCARDVPVEAATSPEFWGQGTLVTVSS
# VL: DIVMTQTPLSLPVTLGQPASISCRSSQSLVYSDGNTYLSWFQQRPGQSPRRLIYKVSNRDSGVPNRFSGSGSGTDFTLKISRVEAEDVGVYYCVQNTHWPAYTFGQGTKVEIK
# B18: ADI-21014 (antibody, V domains shown)
# VH: QVQLQESGPGLVKPSETLSLICTVSGGSISNYYWSWIRQPPGKGLEWIGYVWFGTTKYNPSLKNRVTISVDTGKNQVSLKVNSVTAADTAIYYCARDSSIWYRGAFEIWGQGTTVTVSS
# VL: DIRLTQSPSSLSASVGDRVTITCQASQDISNHLNWYQQRPGKAPELLIYDASTLETGGPSRFSGSGSGTDFTLTISSLQPEDFADYYCQQYDNLPVTFGGGTKVDIK
# B19: ADI-20982 (antibody, V domains shown)
# VH: EVQLVESGPGLVKPSQTLSLTCSVSGVSISRGSYYWSWIRQPAGGGLEWIGRIYTSGVTRYNPSLESRVTISLDSSQNQFFLRLSSVTAADTAVYYCATRESASYSSGPDAFDIWGQGTTVTVSS
# VL: DIQMTQSPSTLSASVGDRVIITCRASQSVNSWLAWYQQKPGKAPKLLIYQASSLESGVPSRFSGSGSGTEFTLTINSLQPDDFATYYCQQYKTFSRPFGQGTKVEIK
# Biological target: RSV prefusion F (preF), subtype A (respiratory syncytial virus, subtype A, UniProt P03420 26-513)
# Assay: BLI, IgG
row,Binder,Kd
1,B1,956 pM
2,B2,305 pM
3,B3,294 pM
4,B4,374 pM
5,B5,234 pM
6,B6,289 pM
7,B7,308 pM
8,B8,291 pM
9,B9,1830 pM
10,B10,213 pM
11,B11,333 pM
12,B12,301 pM
13,B13,296 pM
14,B14,414 pM
15,B15,979 pM
16,B16,4160 pM
17,B17,360 pM
18,B18,408 pM
19,B19,4880 pM

# Biological target: T1, RSV postfusion F (postF), subtype A (respiratory syncytial virus, subtype A, UniProt P03420 26-513)
# T1 construct: also called F ΔFP; Postfusion subtype A
# Assay: BLI, IgG
Binder,binding result,Kd
B1,no binding,–
B2,no binding,–
B3,no binding,–
B4,no binding,–
B5,no binding,–
B6,no binding,–
B7,no binding,–
B8,no binding,–
B9,no binding,–
B10,–,2050 pM
B11,no binding,–
B12,no binding,–
B13,no binding,–
B14,no binding,–
B15,no binding,–
B16,no binding,–
B17,no binding,–
B18,no binding,–
B19,no binding,–

# Biological target: RSV prefusion F (preF), subtype B (respiratory syncytial virus, subtype B)
# Assay: BLI, IgG
row,Binder,Kd
1,B1,1220 pM
2,B2,1560 pM
3,B3,1290 pM
4,B4,504 pM
5,B5,258 pM
6,B6,463 pM
7,B7,417 pM
8,B8,360 pM
9,B9,2550 pM
10,B10,1170 pM
11,B11,544 pM
12,B12,409 pM
13,B13,344 pM
14,B14,1250 pM
15,B15,4000 pM
16,B16,24100 pM
17,B17,2490 pM
18,B18,378 pM
19,B19,5450 pM
